We go through 13 molecules from patent US20240309087A1 (SHANGHAI JUNSHI BIOSCIENCES, published 2024).

Residue numbers refer to the chain shown, from its start.

Experiment [1] has as its target T1, human CD112R on Jurkat CD112R effector cells (human, UniProt Q6DKI7 1-326).
T1 sequence (looked up): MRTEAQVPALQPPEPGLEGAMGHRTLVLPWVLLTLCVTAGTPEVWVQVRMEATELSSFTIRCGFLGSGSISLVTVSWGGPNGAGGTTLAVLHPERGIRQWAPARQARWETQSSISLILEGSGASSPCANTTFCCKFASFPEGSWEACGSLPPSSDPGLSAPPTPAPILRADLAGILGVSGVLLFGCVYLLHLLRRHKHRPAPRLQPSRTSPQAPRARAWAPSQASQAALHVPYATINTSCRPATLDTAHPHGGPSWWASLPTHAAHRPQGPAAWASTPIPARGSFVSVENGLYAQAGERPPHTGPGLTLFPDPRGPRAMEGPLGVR
The experiment is described as follows: cell-based or functional assay.

The target of experiment [2] is T2, hCD112R mFC recombinant protein (human; murine, UniProt Q6DKI7 41-160).
T2 construct: range 41-160; expressed in 293E cells; also called hCD112R ECD mFC; hCD112R-ECD-mFC; not shown: murine IgG2a Fc domain (MX2-mFc vector)
T2 sequence (looked up): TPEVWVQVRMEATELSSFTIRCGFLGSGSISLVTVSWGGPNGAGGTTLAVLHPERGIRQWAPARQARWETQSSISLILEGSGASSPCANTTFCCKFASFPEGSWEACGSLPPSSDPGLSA
The experiment is described as follows: ELISA, coated hCD112R-ECD-mFC. In short, it runs like this:
(§1)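 Plates coated with hCD112R-ECD-mFC at 1.5 μg/mL; humanized antibodies titrated from 1 μg/mL, 2.5-fold, 12 points. Bound antibody detected with HRP anti-human IgG Fc and TMB, read at 420/620 nm; EC50 from 4PL fit, COM701 and anti-KLH hu-IgG4 as controls.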
For orientation: ELISA stands for enzyme-linked immunosorbent assay.

Experiment [3] addresses T2, hCD112R mFC recombinant protein. In words: FACS competition, hCD112R mFc on CHO CD112 cells. In short, it runs like this: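 CHO cells overexpressing human CD112 were co-incubated 30 min at 4 °C with hCD112R mFc (5 μg/mL) and humanized anti-CD112R antibodies (from 100 μg/mL, 3-fold, 10 points). Bound fusion protein detected with anti-mouse IgG Fc secondary by flow cytometry; IC50 from four-parameter fit of MFI. COM701 served as positive control, anti-KLH hu-IgG4 as negative.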

For experiment [4] the target is unchanged. In words: ELISA, coated hCD112R-ECD-mFC; EC50 COM701/EC50 antibody. In short, it runs like this:
as §1

For experiment [5] the target is unchanged. The experiment is described as follows: FACS competition, hCD112R mFc on CHO CD112 cells; IC50 COM701/IC50 antibody. How it is done:
Cells CHO CD112 overexpressing human CD112 were co-incubated with a hCD112R mFc protein solution (5 μg/mL) prepared in a staining buffer (PBS+1% FBS), and the humanized anti-CD112R antibodies or the control antibodies at different concentrations (initial concentration: 100 μg/mL, 3-fold dilution, 10 concentration gradients) at 4° C. for 30 min. Unbound antibodies were then washed with a staining buffer and the cells were incubated with 1% (v/v) goat anti-mouse IgG Fc fluorescent secondary antibodies (Jackson ImmunoResearch) prepared in a staining buffer at 4° C. for 30 min in the dark. Finally, the cells were collected by using a flow cytometer (BD Canto II), and the fluorescent antibodies bound to the cell surface were detected. Raw data were analyzed by using FlowJo to obtain MFI values, and a four-parameter curve fitting was performed by using GraphPad Prism software to obtain IC₅₀ values. The positive control and the negative control were COM701 (anti-CD112R antibody, Compugen, obtained by expression and purification according to the sequences in US20180280506A1) and the anti-KLH hu-IgG4 antibody, respectively.

B1: Hu27 (antibody, IgG4, V domains shown)
VH: EVQLVESGGGLVQPGGSLRLSCAASGFTFSSYHMSWVRQAPGKGLELVAAISRDGDSTYYPDTVKGRFTISRDNAKNSLYLQMNSLRAEDTAVYYCSRHEDYFGFAMDSWGQGTLVTVSS
VL: EIVMTQSPPTLSLSPGERVTLSCKASQSVSNDVAWYQEKPGQAPRLLIYYVSHRFTGIPARFSGSGSGTDFTLTISSLQPEDFAVYYCHQAYRSPWTFGQGTKLEIK
notes: humanized IgG4
In general, EC50 refers to the concentration that produces a half-maximal response. As usually defined, the IC50 is the point on the concentration scale where inhibition reaches its midpoint. As for B1, in experiment [1], the “EC50, CD112R/CD112 reporter” value was 0.0328 µg/mL and the “Relative activity (%), EC50 COM701/EC50 antibody” value was determined as 217%. Also, in experiment [2], the EC50 is 0.00442 µg/mL. Moreover, in experiment [3], the IC50 worked out at 2.31 µg/mL. Also, the “Relative activity (%)” value in experiment [4] came to 137%. For the same molecule, the “Relative activity (%)” value in experiment [5] was found to be 155%.

B2: Hu35 (antibody, IgG4, V domains shown)
VH: B1 VH with N74D, K76E
VL: DIQMTQSPSSLSASVGDRVTITCKASQSVSNDVAWYQQKPGKAPKLLIYYVSNRFTGVPSRFSGSGSGTDFTLTISSLQPEDFATYFCQQAYRSPWTFGQGTKLEIK
notes: humanized IgG4
In the case of B2, in experiment [1], the “EC50, CD112R/CD112 reporter” value turned out to be 0.031 µg/mL and the “Relative activity (%), EC50 COM701/EC50 antibody” value was found to be 184%. For the same molecule, the EC50 in experiment [2] was determined as 0.00439 µg/mL. The IC50 in experiment [3] stood at 3.4 µg/mL. Besides, the “Relative activity (%)” value in experiment [4] is 136%. Also, the “Relative activity (%)” value in experiment [5] amounted to 105%.

B3: Hu17 (antibody, IgG4, V domains shown)
VH: B1 VH with Q13K, A49S
VL: B2 VL
notes: humanized IgG4
Consider B3, for which the “EC50, CD112R/CD112 reporter” value in experiment [1] came out at 0.0228 µg/mL. For the same molecule, the “Relative activity (%), EC50 COM701/EC50 antibody” value in experiment [1] came to 241%. Further, in experiment [2], the EC50 is 0.00418 µg/mL. The IC50 in experiment [3] was found to be 2.12 µg/mL. Besides, the “Relative activity (%)” value in experiment [4] was 136%; in experiment [5], 169%.

B4: Hu29 (antibody, IgG4, V domains shown)
VH: B1 VH
VL: B2 VL
notes: humanized IgG4
For the molecule B4, in experiment [1], the “EC50, CD112R/CD112 reporter” value was 0.0272 µg/mL and the “Relative activity (%), EC50 COM701/EC50 antibody” value stood at 230%. Besides, the EC50 in experiment [2] amounted to 0.00413 µg/mL. The IC50 in experiment [3] stood at 3.67 µg/mL. The “Relative activity (%)” value in experiment [4] amounted to 147%. The “Relative activity (%)” value in experiment [5] turned out to be 97%.

B5: Hu28 (antibody, IgG4, V domains shown)
VH: B1 VH
VL: DIVMTQSPDSLAVSLGERATINCKASQSVSNDVAWYQQKPGQPPKLLIYYVSHRFTGVPDRFSGSGSGTDFTLTISSLQAEDVAVYFCHQAYRSPWTFGQGTKLEIK
notes: humanized IgG4
Turning to B5, in experiment [1], the “EC50, CD112R/CD112 reporter” value stood at 0.0306 µg/mL and the “Relative activity (%), EC50 COM701/EC50 antibody” value turned out to be 232%. Further, the EC50 in experiment [2] was determined as 0.00479 µg/mL. In addition, the IC50 in experiment [3] is 2.27 µg/mL. In addition, in experiment [4], the “Relative activity (%)” value is 127%. Besides, the “Relative activity (%)” value in experiment [5] was found to be 157%.

B6: Hu36 (antibody, IgG4, V domains shown)
VH: B1 VH with N74D, K76E
VL: B1 VL with E38Q, H53N, Y87F, H89Q
notes: humanized IgG4
As to B6, in experiment [1], the “EC50, CD112R/CD112 reporter” value is 0.0356 µg/mL and the “Relative activity (%), EC50 COM701/EC50 antibody” value turned out to be 160%. Besides, the EC50 in experiment [2] worked out at 0.0042 µg/mL. In addition, the IC50 in experiment [3] was found to be 2.44 µg/mL. For the same molecule, the “Relative activity (%)” value in experiment [4] amounted to 142%. In addition, in experiment [5], the “Relative activity (%)” value was determined as 146%.

B7: Hu30 (antibody, IgG4, V domains shown)
VH: B1 VH
VL: B1 VL with E38Q, H53N, Y87F, H89Q
notes: humanized IgG4
For B7, in experiment [1], the “EC50, CD112R/CD112 reporter” value was found to be 0.034 µg/mL and the “Relative activity (%), EC50 COM701/EC50 antibody” value is 184%. The EC50 in experiment [2] was 0.00396 µg/mL. Moreover, the IC50 in experiment [3] was found to be 2.37 µg/mL. Besides, in experiment [4], the “Relative activity (%)” value worked out at 153%. In addition, the “Relative activity (%)” value in experiment [5] stood at 151%.

B8: Hu23 (antibody, IgG4, V domains shown)
VH: B1 VH with Q13K, A49S, N74D, K76E
VL: B2 VL
notes: humanized IgG4
Take B8: in experiment [1], the “EC50, CD112R/CD112 reporter” value was determined as 0.0374 µg/mL and the “Relative activity (%), EC50 COM701/EC50 antibody” value turned out to be 217%. For the same molecule, the EC50 in experiment [2] amounted to 0.00436 µg/mL. In experiment [3], the IC50 came out at 2.53 µg/mL. Besides, the “Relative activity (%)” value in experiment [4] was determined as 153%. Further, the “Relative activity (%)” value in experiment [5] was determined as 141%.

B9: Hu24 (antibody, IgG4, V domains shown)
VH: B1 VH with Q13K, A49S, N74D, K76E
VL: B1 VL with E38Q, H53N, Y87F, H89Q
notes: humanized IgG4
On to B9, for which, in experiment [1], the “EC50, CD112R/CD112 reporter” value turned out to be 0.0485 µg/mL and the “Relative activity (%), EC50 COM701/EC50 antibody” value turned out to be 167%. Also, in experiment [2], the EC50 worked out at 0.00429 µg/mL. Further, in experiment [3], the IC50 came to 2.89 µg/mL. In addition, the “Relative activity (%)” value in experiment [4] worked out at 155%. Also, in experiment [5], the “Relative activity (%)” value was found to be 124%.

B10: Hu22 (antibody, IgG4, V domains shown)
VH: B1 VH with Q13K, A49S, N74D, K76E
VL: B5 VL
notes: humanized IgG4
As to B10, in experiment [1], the “EC50, CD112R/CD112 reporter” value was 0.0267 µg/mL. Moreover, in experiment [1], the “Relative activity (%), EC50 COM701/EC50 antibody” value amounted to 191%. Besides, the EC50 in experiment [2] is 0.00425 µg/mL. In experiment [3], the IC50 amounted to 2.67 µg/mL. Moreover, the “Relative activity (%)” value in experiment [4] came out at 156%; in experiment [5], 134%.

B11: Hu60 (antibody, IgG4, V domains shown)
VH: B1 VH with V37I, S52N, R53S, D54N, D56I, S57N, P61L, S97A, F103Y, S109Y
VL: B1 VL with E38Q, H53N, Y87F, H89Q
notes: humanized IgG4
For the molecule B11, in experiment [1], the “EC50, CD112R/CD112 reporter” value was 0.0225 µg/mL and the “Relative activity (%), EC50 COM701/EC50 antibody” value came out at 261%. For the same molecule, in experiment [2], the EC50 amounted to 0.00602 µg/mL. Further, the IC50 in experiment [3] is 3.49 µg/mL. Besides, in experiment [4], the “Relative activity (%)” value worked out at 139%. The “Relative activity (%)” value in experiment [5] was found to be 69%.

B12: Hu54 (antibody, IgG4, V domains shown)
VH: EVQLVESGGGLVKPGGSLRLSCAASGFTFSSYHMSWVRQAPGKGLELVSAINSNGINTYYLDTVKGRFTISRDNAKNSLYLQMNSLRAEDTAVYYCARHEDYYGFAMDYWGQGTLVTVSS
VL: B1 VL with E38Q, H53N, Y87F, H89Q
notes: humanized IgG4
As to B12, in experiment [1], the “EC50, CD112R/CD112 reporter” value came to 0.0241 µg/mL and the “Relative activity (%), EC50 COM701/EC50 antibody” value is 300%. The EC50 in experiment [2] came to 0.00631 µg/mL. In addition, the IC50 in experiment [3] was found to be 3.25 µg/mL. Besides, the “Relative activity (%)” value in experiment [4] came to 145%. In addition, in experiment [5], the “Relative activity (%)” value came out at 74.1%.

B13: Hu57 (antibody, IgG4, V domains shown)
VH: B12 VH with K13Q, V37I, S49A
VL: B1 VL
notes: humanized IgG4
Regarding B13, in experiment [1], the “EC50, CD112R/CD112 reporter” value is 1.33 µg/mL and the “Relative activity (%), EC50 COM701/EC50 antibody” value worked out at 4.5%. Moreover, the EC50 in experiment [2] worked out at 0.00535 µg/mL. For the same molecule, in experiment [3], the IC50 came out at 3.64 µg/mL. In experiment [4], the “Relative activity (%)” value stood at 171%. Moreover, the “Relative activity (%)” value in experiment [5] turned out to be 66.2%.
